This test deals with lysozyme (UniProt P00698). Kind of test: ELISA; phage ELISA: lysozyme immobilised in a 96-well NUNC Maxisorp plate; 1ZVH displayed on phage. Conditions: one partner purified. (In general: In an ELISA, binding on a coated surface is turned into a signal by an enzyme label.)
Chain of lysozyme (P00698 19-147): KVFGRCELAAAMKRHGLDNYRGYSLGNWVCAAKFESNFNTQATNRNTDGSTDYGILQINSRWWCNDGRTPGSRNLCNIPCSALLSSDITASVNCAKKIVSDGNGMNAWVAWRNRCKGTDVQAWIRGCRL

B1: camel nanobody 1ZVH, displayed on phage (VHH)
VHH: DVQLVESGGGSVQAGGSLRLSCAASGYIASINYLGWFRQAPGKEREGVAAVSPAGGTPYYADSVKGRFTVSLDNAENTVYLQMNSLKPEDTALYYCAAARQGWYIPLNSYGYNYWGQGTQVTVSS
notes: also called template of the ASyNAL library
Turning to B1, the binding result is on record as “binds”.

The values above are taken from PMC9479348 (Journal of Nanobiotechnology, 2022).
